# In PMC3538638, “On the Molecular Basis of D-Bifunctional Protein Deficiency Type III” (PLoS ONE, 2013):
# B1: wild type 3R-hydroxyacyl-CoA dehydrogenase (DH) fragment of human MFE-2 (multifunctional enzyme type 2) (domain or fragment)
# chain: MGSPLRFDGRVVLVTGAGAGLGRAYALAFAERGALVVVNDLGGDFKGVGKGSLAADKVVEEIRRRGGKAVANYDSVEEGEKVVKTALDAFGRIDVVVNNAGILRDRSFARISDEDWDIIHRVHLRGSFQVTRAAWEHMKKQKYGRIIMTSSASGIYGNFGQANYSAAKLGLLGLANSLAIEGRKSNIHCNTIAPNAGSRMTQTVMPEDLVEALKPEYVAPLVLWLCHESCEENGGLFEVGAGWIGKLRWERTLGAIVRQKNHPMTPEAVKANWKKICDFENASKPQSIQESTGSIIEVLSKIDS
# notes: 3R-hydroxyacyl-CoA dehydrogenase (DH) fragment of human MFE-2 / D-bifunctional protein; also called HsDH; native HsDH; source: E. coli BL21(DE3)pLysS, pLWRP51::HsDH, purified (Ni-NTA, Superdex 200)
# B2: HsDH(W249G), patient variant of the 3R-hydroxyacyl-CoA dehydrogenase fragment of human MFE-2 (domain or fragment)
# chain: MGSPLRFDGRVVLVTGAGAGLGRAYALAFAERGALVVVNDLGGDFKGVGKGSLAADKVVEEIRRRGGKAVANYDSVEEGEKVVKTALDAFGRIDVVVNNAGILRDRSFARISDEDWDIIHRVHLRGSFQVTRAAWEHMKKQKYGRIIMTSSASGIYGNFGQANYSAAKLGLLGLANSLAIEGRKSNIHCNTIAPNAGSRMTQTVMPEDLVEALKPEYVAPLVLWLCHESCEENGGLFEVGAGWIGKLRGERTLGAIVRQKNHPMTPEAVKANWKKICDFENASKPQSIQESTGSIIEVLSKIDS
# notes: Made by site-directed mutagenesis of pLWRP51::HsDH; for the limits see the note of m1; also called W249G variant; source: E. coli BL21(DE3)pLysS, pLWRP51 vector, purified (Ni-NTA, Superdex 200)
# B3: HsDH(R248C), patient variant of the 3R-hydroxyacyl-CoA dehydrogenase fragment of human MFE-2 (domain or fragment)
# chain: MGSPLRFDGRVVLVTGAGAGLGRAYALAFAERGALVVVNDLGGDFKGVGKGSLAADKVVEEIRRRGGKAVANYDSVEEGEKVVKTALDAFGRIDVVVNNAGILRDRSFARISDEDWDIIHRVHLRGSFQVTRAAWEHMKKQKYGRIIMTSSASGIYGNFGQANYSAAKLGLLGLANSLAIEGRKSNIHCNTIAPNAGSRMTQTVMPEDLVEALKPEYVAPLVLWLCHESCEENGGLFEVGAGWIGKLCWERTLGAIVRQKNHPMTPEAVKANWKKICDFENASKPQSIQESTGSIIEVLSKIDS
# notes: Made by site-directed mutagenesis of pLWRP51::HsDH; for the limits see the note of m1; also called R248C variant; source: E. coli BL21(DE3)pLysS, pLWRP51 vector, purified (Ni-NTA, Superdex 200)
# B4: HsDH(N158D), patient variant of the 3R-hydroxyacyl-CoA dehydrogenase fragment of human MFE-2 (domain or fragment)
# chain: MGSPLRFDGRVVLVTGAGAGLGRAYALAFAERGALVVVNDLGGDFKGVGKGSLAADKVVEEIRRRGGKAVANYDSVEEGEKVVKTALDAFGRIDVVVNNAGILRDRSFARISDEDWDIIHRVHLRGSFQVTRAAWEHMKKQKYGRIIMTSSASGIYGDFGQANYSAAKLGLLGLANSLAIEGRKSNIHCNTIAPNAGSRMTQTVMPEDLVEALKPEYVAPLVLWLCHESCEENGGLFEVGAGWIGKLRWERTLGAIVRQKNHPMTPEAVKANWKKICDFENASKPQSIQESTGSIIEVLSKIDS
# notes: Made by site-directed mutagenesis of pLWRP51::HsDH; for the limits see the note of m1; also called N158D variant; source: E. coli BL21(DE3)pLysS, pLWRP51 vector, purified (Ni-NTA, Superdex 200)
# B5: HsDH(E232K), patient variant of the 3R-hydroxyacyl-CoA dehydrogenase fragment of human MFE-2 (domain or fragment)
# chain: MGSPLRFDGRVVLVTGAGAGLGRAYALAFAERGALVVVNDLGGDFKGVGKGSLAADKVVEEIRRRGGKAVANYDSVEEGEKVVKTALDAFGRIDVVVNNAGILRDRSFARISDEDWDIIHRVHLRGSFQVTRAAWEHMKKQKYGRIIMTSSASGIYGNFGQANYSAAKLGLLGLANSLAIEGRKSNIHCNTIAPNAGSRMTQTVMPEDLVEALKPEYVAPLVLWLCHESCEKNGGLFEVGAGWIGKLRWERTLGAIVRQKNHPMTPEAVKANWKKICDFENASKPQSIQESTGSIIEVLSKIDS
# notes: Made by site-directed mutagenesis of pLWRP51::HsDH; for the limits see the note of m1; also called E232K variant; source: E. coli BL21(DE3)pLysS, pLWRP51 vector, purified (Ni-NTA, Superdex 200)
# B6: HsDH(T15A), patient variant of the 3R-hydroxyacyl-CoA dehydrogenase fragment of human MFE-2 (domain or fragment)
# chain: MGSPLRFDGRVVLVAGAGAGLGRAYALAFAERGALVVVNDLGGDFKGVGKGSLAADKVVEEIRRRGGKAVANYDSVEEGEKVVKTALDAFGRIDVVVNNAGILRDRSFARISDEDWDIIHRVHLRGSFQVTRAAWEHMKKQKYGRIIMTSSASGIYGNFGQANYSAAKLGLLGLANSLAIEGRKSNIHCNTIAPNAGSRMTQTVMPEDLVEALKPEYVAPLVLWLCHESCEENGGLFEVGAGWIGKLRWERTLGAIVRQKNHPMTPEAVKANWKKICDFENASKPQSIQESTGSIIEVLSKIDS
# notes: Made by site-directed mutagenesis of pLWRP51::HsDH; for the limits see the note of m1; also called T15A variant; source: E. coli BL21(DE3)pLysS, pLWRP51 vector, purified (Ni-NTA, Superdex 200)
# Molecular target: the molecule itself
# Experiment: static light scattering (SLS); purified recombinant protein; SLS as described previously [3]; the methods name it for the native HsDH protein
row,Protein,stoichiometry N
1,B1,2

# Molecular target: the molecule itself
# Experiment: SEC; Superdex 200 10/300 GL, 20 mM PIPES/HCl pH 6.8, 150 mM NaCl, 1 mM EDTA, 5% glycerol, 1 mM NaN3, 0.3 ml/min; retention times of wild type and variants compared
row,Protein,binding result
1,B2,binds
2,B3,binds
3,B4,binds
4,B5,binds
5,B6,binds
